The data set concerns the molecule itself.

Experimental findings from article PMC6816459 (Methods in molecular biology (Clifton, N.J.), 2019) are described below.

For orientation: stoichiometry N means a count of units in the complex or per binding partner.

B1: C. elegans Vps4 (enzyme, UniProt Q9BL83 1-430, looked up)
chain: MSVPALQKAIELVTKATEEDTAGRYDQALRLYDQAIEYFLHAIKYESQGDKQRNAIRDKVGQYLNRAEQIKTHLKDGKTQKKPVKDGKDDSDEDEDKKKFQDKLSGAIVMEKPNVKWTDIAGLEGAKEALKEAVILPIKFPQLFTGNRKPWQGILLFGPPGTGKSYIAKAVATEAGESTFFSISSSDLMSKWLGESEKLVKNLFALAREHKPSIIFIDEIDSLCSARSDNESESARRIKTEFMVQMQGVGLNNDGILVLGATNIPWILDSAIRRRFEKRIYIPLPDIHARKEMFRIDVGKNYNTLTDQDFKVLAERCEGYSGYDISILVKDALMQPVRRVQSATHFKHVSGPSPKDPNVIAHDLLTPCSPGDPHAIAMNWLDVPGDKLANPPLSMQDISRSLASVKPTVNNTDLDRLEAFKNDFGQDGQE
For the protein B1, the “stoichiometry N” value turned out to be 6.
